Test results from the Human Domainome abundance scans (Beltran et al. 2025).
± gives the uncertainty stated by the source.

B1: Neutrophil cytosol factor 2, residues 456 to 514; numbered along this chain, P19878 (parent)
chain: LKKGSQVEALFSYEATQPEDLEFQEGDIILVLSKVNEEWLEGECKGKVGIFPKVFVEDC

Variants of: B1
Test: abundance fitness (aPCA) (normalised: wild type 0, dead -1); higher = more abundant; growth selection in yeast, the domain comes from the species named
Settings: Homo sapiens

| Variant | abundance fitness |
| --- | --- |
| LKKGSQVEALFSYEATQPEDLEFQEGYIILVLSKVNEEWLEGECKGKVGIFPKVFVEDC | -0.613 ± 0.13 |
| LKKGSQVEALFSYEATQPEDLEFQEGDIILVLSKVNEEWLEGECKGKVGIFPFVFVEDC | -0.857 ± 0.25 |
| LKKGSQVEALFSYEATQPEDLEFQEGDIILVLSKVMEEWLEGECKGKVGIFPKVFVEDC | -0.43 ± 0.28 |
| LKKGSQVEALFSYEATQPEDLEFQEGDIILLLSKVNEEWLEGECKGKVGIFPKVFVEDC | 0.041 ± 0.11 |
| LKKGSQVEALFSYEATQPEDLFFQEGDIILVLSKVNEEWLEGECKGKVGIFPKVFVEDC | -0.55 ± 0.15 |
| LKKGSQVEALFSYEATQPEDLEFQEGDIILVLSKVNEEWLEGECSGKVGIFPKVFVEDC | -0.691 ± 0.17 |
| LKKGRQVEALFSYEATQPEDLEFQEGDIILVLSKVNEEWLEGECKGKVGIFPKVFVEDC | -0.116 ± 0.14 |
| RKKGSQVEALFSYEATQPEDLEFQEGDIILVLSKVNEEWLEGECKGKVGIFPKVFVEDC | 0.08 ± 0.27 |
| LKKGSQVEALFSYEATQPEDLEFQEGDIILVLFKVNEEWLEGECKGKVGIFPKVFVEDC | -0.291 ± 0.13 |
| LKKGSQVEALFSYEATQPEDLEFQEGDIILVLSKVNEEWLEGEWKGKVGIFPKVFVEDC | -0.182 ± 0.17 |
| LKKGSQVEALFSYGATQPEDLEFQEGDIILVLSKVNEEWLEGECKGKVGIFPKVFVEDC | -0.233 ± 0.11 |
| LKKGSQVEALFSYYATQPEDLEFQEGDIILVLSKVNEEWLEGECKGKVGIFPKVFVEDC | -0.215 ± 0.12 |
| LKKGSQVEALFSYEATQPEDLEFQEGDIILVLSKVNEEWLEGECKYKVGIFPKVFVEDC | -0.352 ± 0.14 |
| LKKGSQVEALFSYEATQPEDLEFQEGDIILVLSKANEEWLEGECKGKVGIFPKVFVEDC | -0.074 ± 0.1 |
| LKKGSQVEALFSYEATQPEDLEFQEGDIILVLSKVNEEWLEGELKGKVGIFPKVFVEDC | -0.35 ± 0.1 |
| LKKGSQVEALFSYEATQPEDLEFQEGDIILVLSKVNEEWLEGECKGKVGIFPKEFVEDC | -0.124 ± 0.34 |
| LKKGSQVEALFSYEATQPRDLEFQEGDIILVLSKVNEEWLEGECKGKVGIFPKVFVEDC | -0.295 ± 0.099 |
| LKKGSQVEALFSYEATQPEDLEFQEGDIILVLSKVNESWLEGECKGKVGIFPKVFVEDC | -0.701 ± 0.13 |
| LKDGSQVEALFSYEATQPEDLEFQEGDIILVLSKVNEEWLEGECKGKVGIFPKVFVEDC | -0.366 ± 0.24 |
| LKKGSQVEALFSYEATQPQDLEFQEGDIILVLSKVNEEWLEGECKGKVGIFPKVFVEDC | -0.216 ± 0.27 |
| LKKGSQVEALFSPEATQPEDLEFQEGDIILVLSKVNEEWLEGECKGKVGIFPKVFVEDC | -0.21 ± 0.17 |
| LHKGSQVEALFSYEATQPEDLEFQEGDIILVLSKVNEEWLEGECKGKVGIFPKVFVEDC | 0.249 ± 0.3 |
| LKKGSQVEALFSYEATQPEDLEFQEGDIILVLSKVNEEWLEGECKGKVGIFPKVFVEIC | -0.268 ± 0.17 |

| Variant | abundance fitness |
| --- | --- |
| LKKGSQDEALFSYEATQPEDLEFQEGDIILVLSKVNEEWLEGECKGKVGIFPKVFVEDC | -0.907 ± 0.49 |
| LVKGSQVEALFSYEATQPEDLEFQEGDIILVLSKVNEEWLEGECKGKVGIFPKVFVEDC | -0.337 ± 0.45 |
| LKKGSQVEALFSYEATQPEDLEFQEGDIILVLSKVNEEWLEGEVKGKVGIFPKVFVEDC | -0.455 ± 0.094 |
| LKKGSQVEALFSYEATQPEDLEFQEYDIILVLSKVNEEWLEGECKGKVGIFPKVFVEDC | -1.03 ± 0.3 |
| LKKGSQVEALFSDEATQPEDLEFQEGDIILVLSKVNEEWLEGECKGKVGIFPKVFVEDC | -0.646 ± 0.17 |
| LKKGSQVEALFSYEATQPEDLEFQEGDGILVLSKVNEEWLEGECKGKVGIFPKVFVEDC | -0.245 ± 0.095 |
| LKKGSQVEALFSYEATQPEDLEFQEGDFILVLSKVNEEWLEGECKGKVGIFPKVFVEDC | -0.443 ± 0.14 |
| LKKGSQVEALFSYEATQPEDYEFQEGDIILVLSKVNEEWLEGECKGKVGIFPKVFVEDC | -0.721 ± 0.15 |
| LKKGSQVEALFSYEATQPEDLEFQEGDAILVLSKVNEEWLEGECKGKVGIFPKVFVEDC | -0.179 ± 0.13 |
| LKKGSQVEALFSYEATQPEDLEFQEGDIILVLSKVNEIWLEGECKGKVGIFPKVFVEDC | -0.097 ± 0.12 |
| LKKGSQVEALFSYEATQPEDLEFQEGDIILVLSKVNEEWLEGECKGKVGKFPKVFVEDC | 0.108 ± 0.18 |
| LKKGSQMEALFSYEATQPEDLEFQEGDIILVLSKVNEEWLEGECKGKVGIFPKVFVEDC | -0.99 ± 0.5 |
| LKKGSQVEALFSYEATQPEDLEFQEGDIILVLSKVNEEWLEGECKGKVGIFPKVFVKDC | 0.201 ± 0.2 |
| LKKGSQVEALFSYEATQPEDLEFQEGDIILVLSKVNEEWLEGECKGKYGIFPKVFVEDC | -0.17 ± 0.13 |
| LKKGSQVEALFSYEATQPEDLEFQEGDIILVLSKVWEEWLEGECKGKVGIFPKVFVEDC | -0.712 ± 0.27 |
| LKKGSQVEALFSYEATQPEDLEFQEGDIILVLSKVNEEWLEGECKGKVGIFCKVFVEDC | -0.51 ± 0.14 |
| LKKGSQVEALFSYEATQPEDLENQEGDIILVLSKVNEEWLEGECKGKVGIFPKVFVEDC | -0.381 ± 0.16 |
| LKKGSQVEALFSYEATQPEDLEFQDGDIILVLSKVNEEWLEGECKGKVGIFPKVFVEDC | -0.9 ± 0.33 |
| LKKGSQVEALFSYEATQPEDLEFQEGDIILHLSKVNEEWLEGECKGKVGIFPKVFVEDC | -0.369 ± 0.14 |
| LKKGSQVEALFSYEATQPEDLEFQEGDIIIVLSKVNEEWLEGECKGKVGIFPKVFVEDC | 0.032 ± 0.1 |
| FKKGSQVEALFSYEATQPEDLEFQEGDIILVLSKVNEEWLEGECKGKVGIFPKVFVEDC | 0.593 ± 0.23 |
| LKKGSQVEALFSYEATQPEDLEFQEGDIILVLSKVNEEWLEGECKGKVGIFPKVFVEDV | 0.402 ± 0.14 |
| LKKGSQVEALFSYEATQPEDLEFQEGDIILVLSKVNEEWLEGECKGKVCIFPKVFVEDC | -0.756 ± 0.17 |

| Variant | abundance fitness |
| --- | --- |
| LKKGSQVEALFSYTATQPEDLEFQEGDIILVLSKVNEEWLEGECKGKVGIFPKVFVEDC | 0.319 ± 0.093 |
| VKKGSQVEALFSYEATQPEDLEFQEGDIILVLSKVNEEWLEGECKGKVGIFPKVFVEDC | -0.294 ± 0.34 |
| LKKGSQVEALFSYEATQPEDLEFQEGDIILVLSKVNEEWAEGECKGKVGIFPKVFVEDC | -0.731 ± 0.18 |
| LKKGSQVEALFSYEATQPEDDEFQEGDIILVLSKVNEEWLEGECKGKVGIFPKVFVEDC | -0.323 ± 0.12 |
| LKKGSQVEALFSYEATQPEDLEFQEGFIILVLSKVNEEWLEGECKGKVGIFPKVFVEDC | -0.493 ± 0.14 |
| LKKGSQVEALFSYEATQPEDLEFQEGDIILVLSKVNEEWLEGECKGKVGIFPKVFVNDC | -0.194 ± 0.13 |
| LKKGSQVEALFSYQATQPEDLEFQEGDIILVLSKVNEEWLEGECKGKVGIFPKVFVEDC | 0.068 ± 0.33 |
| LKKGSQVEALFSYEATQPEDLEFQEGDIILVLSKVHEEWLEGECKGKVGIFPKVFVEDC | -0.276 ± 0.13 |
| LKKGSQVEALFSYEATQPEDLEFQEGDIILVLSKVNEEWLEGECKGKVGIFPKVFVEDG | -0.64 ± 0.22 |
| LKKGSQVEVLFSYEATQPEDLEFQEGDIILVLSKVNEEWLEGECKGKVGIFPKVFVEDC | -1.13 ± 0.43 |
| LKKGSQVEALFSYEATQPEDLEFQEGDIILVLWKVNEEWLEGECKGKVGIFPKVFVEDC | -0.366 ± 0.2 |
| LKKGSQVEALFSYEATQPEDLKFQEGDIILVLSKVNEEWLEGECKGKVGIFPKVFVEDC | -0.473 ± 0.37 |
| LKKGSQVEALFSYEATQPEDLNFQEGDIILVLSKVNEEWLEGECKGKVGIFPKVFVEDC | -0.654 ± 0.2 |
| LKTGSQVEALFSYEATQPEDLEFQEGDIILVLSKVNEEWLEGECKGKVGIFPKVFVEDC | -0.094 ± 0.21 |
| LKKGSQVEALFSYEATQPEDLEFQEGDIILVLSKVNEEWLEGECKGSVGIFPKVFVEDC | -0.22 ± 0.095 |
| LKKGSQVEALFSYEATQPEDLEEQEGDIILVLSKVNEEWLEGECKGKVGIFPKVFVEDC | -0.023 ± 0.29 |
| LKKGSQVEALFSYKATQPEDLEFQEGDIILVLSKVNEEWLEGECKGKVGIFPKVFVEDC | 0.217 ± 0.18 |
| LKKGSQVEALFSYEATQPEDLEFQEGDIILVLSKVNEEWLEGECKGMVGIFPKVFVEDC | -0.924 ± 0.32 |
| LKKGSQVEALFSYEATQPEDLEMQEGDIILVLSKVNEEWLEGECKGKVGIFPKVFVEDC | -0.098 ± 0.21 |
| LKKGSQVEALFSYEATQPEDLEFQEGDIILVLSKVNEDWLEGECKGKVGIFPKVFVEDC | 0.028 ± 0.12 |
| LKKGSQVEALFSYEATQPEDLEFQEGDIILVLSKVNEEWLEGECKGKVGIFPKVFVQDC | 0.541 ± 0.16 |
| LKKGSQVEALFSYEATQPEDLEFQEGDIILVLSKVNEEWLEGECKGKVGIFPKVLVEDC | 0.207 ± 0.11 |
| LKKGSQVEALFSYEATQPEDLEFQEGDIILVLSKGNEEWLEGECKGKVGIFPKVFVEDC | -0.613 ± 0.11 |

| Variant | abundance fitness |
| --- | --- |
| LKKGSQVEALFSYEATQPEDLEFQEGDIILVLSKVNEEWLEGECKGKVGIFPKQFVEDC | 0.298 ± 0.15 |
| LKKGSQVEALFSYEATQPEDLEFQEGDIILVLSKVNEEWLEGECKGKVGIFPKVFVGDC | 0.005 ± 0.13 |
| LKKGSQVEALFSYEATQPEDLEFQEGDIILVLSKVNEEFLEGECKGKVGIFPKVFVEDC | -0.49 ± 0.11 |
| LAKGSQVEALFSYEATQPEDLEFQEGDIILVLSKVNEEWLEGECKGKVGIFPKVFVEDC | 0.146 ± 0.19 |
| LKKGSQVEALFSYEATQPEDLEFQEGDIDLVLSKVNEEWLEGECKGKVGIFPKVFVEDC | -0.41 ± 0.15 |
| LKKGSQVEALFSYEATQPEDLEFQEGDIILVLSKYNEEWLEGECKGKVGIFPKVFVEDC | -0.69 ± 0.17 |
| LKKGSQVEALFSYEATQPEDLEFQEGDIILVLSKVNEENLEGECKGKVGIFPKVFVEDC | -0.196 ± 0.11 |
| LNKGSQVEALFSYEATQPEDLEFQEGDIILVLSKVNEEWLEGECKGKVGIFPKVFVEDC | 0.141 ± 0.32 |
| LKKGSQVEALFSYEATQPEDLEFQEGDIILVLSKVNEEWLEGECKGKDGIFPKVFVEDC | -0.443 ± 0.17 |
| LKKGSQVEALFSYEATQPEDLEFQEGDIILVLSKVNEEWLEGECKGKVGIFPKFFVEDC | -0.203 ± 0.13 |
| LKKGSQVEALFSYEATQPSDLEFQEGDIILVLSKVNEEWLEGECKGKVGIFPKVFVEDC | -0.229 ± 0.08 |
| LFKGSQVEALFSYEATQPEDLEFQEGDIILVLSKVNEEWLEGECKGKVGIFPKVFVEDC | 0.093 ± 0.48 |
| LKKGSQVEALFSYELTQPEDLEFQEGDIILVLSKVNEEWLEGECKGKVGIFPKVFVEDC | -0.827 ± 0.22 |
| LKKGSQVEALFSYEATQPEDLEFQEGDIILVLSKVNEEWLEGECKGKVGIFPKVFLEDC | -0.589 ± 0.15 |
| LKKGSQVEALFSYEATQPEDLEFQEGDIILVLSKVNEEWLEGECKGKVNIFPKVFVEDC | -0.735 ± 0.15 |
| LKKGSQVEALFSYEATQPEDLEFQEGDIILVLSKVNEEWLEGECKGKVGIFPKVFVEDH | -0.361 ± 0.22 |
| LKKGSQVEALFSYEATQPEDLEFQEGDIILVLSKVNEEWLEGECKGKVGAFPKVFVEDC | -0.213 ± 0.17 |
| LKKGSQVEALFSYEATQPEDLEFQEGDMILVLSKVNEEWLEGECKGKVGIFPKVFVEDC | -0.065 ± 0.13 |
| LKKGSQVEALFSYEATQPEWLEFQEGDIILVLSKVNEEWLEGECKGKVGIFPKVFVEDC | -0.7 ± 0.3 |
| LKKGSQVEALFSYEATQPEDLEFQEGDIILVLSKVNEEWLEGECIGKVGIFPKVFVEDC | -0.937 ± 0.18 |
| LKKGSQVEALFSYEATQPEDLEFQEGDIILVLSKVNEEWLEGECKGKVGIFPKVFVRDC | 0.865 ± 0.091 |
